B1: mRNA-splicing (parent)
chain: AGUUGCUGCUGGGAGCUCCAGCACAGUGAAAUGGACAGAAGGGCAGAGCAA

Variants of B1 are the subject of this data set. Nature of the data set: exon inclusion enrichment index; higher = more inclusion; WT1 exon 5 minigene, HEK293.
In the case of AGUUACCACCGGGAGCUCCCACACAGUGAAAUGGACAGAAGGGCAGAGCAA [G5A U7C G8A U10C A20C G21A], the “exon inclusion enrichment index” value worked out at 0.984. In the case of AGUUACCACCGGGAGCUCCAGCACAGUGAAAUGGACAGAAGGGCGAAGCAA [G5A U7C G8A U10C A45G G46A] it was 4.51; in that of AGUUGCUGCUGGGAGCUCCAGCACAGUGAAAUGGACAGAAGGGCCGAGCAA [A45C], 0.223. Regarding AGUUAGGGAUGGGAGCUAUAGCACAGUGAAAUGGACAGAAGGGCAGAGCAA [G5A C6G U7G C9A C18A C19U], the “exon inclusion enrichment index” value was 0.00126. As to AGUUGAAGAAGGGAGUCCCAGCACAGUGAAAUGGACAGAAGGGCAGAGCAA [C6A U7A C9A U10A C16U U17C], the “exon inclusion enrichment index” value came to 0.225. As for AGUUGACGACGGGAGCUCCAGCACAGUGAAAGCGACAGAAGGGCAGAGCAA [C6A U7C C9A U10C U32G G33C], the figure is 3.23; as for AGUUAGGGAUGGGAGCUCCAGCACAGUGACAUGGACAGAAGGGCAGAGCAA [G5A C6G U7G C9A A30C], 0.00196.

On to AGUUCACACAGGGAGCUCCAGCACAGUGAAAUGGACAAAAGGGCAGAGCAA [G5C C6A U7C G8A U10A G38A], for which the “exon inclusion enrichment index” value came out at 0.0452. As for AGUUAUAUAUGGGUGCUCCAGCACAGUGAAAUGGACAGAAGGGCAGAGCAA [G5A C6U U7A G8U C9A A14U], the figure is 0.00769; as for AGUUAGGGAUGGGAGCUCCAGCACAGUGAGCUGGACAGAAGGGCAGAGCAA [G5A C6G U7G C9A A30G A31C], 0.00143.

As for AGUUCGCGCCGGGAGCUCCAGCACAGUUUAAUGGACAGAAGGGCAGAGCAA [G5C C6G U7C U10C G28U A29U], the “exon inclusion enrichment index” value amounted to 1.08. In the case of AGAUAUAUAUGGGAGCUCCAGCACAGUGAAAUGGACAGAAGGGCAGAGCAA [U3A G5A C6U U7A G8U C9A] it was 0.265; in that of AGUUGCUGAAGGGAGCUCCAGCACAGUGAAAUGGACAGAAGGGCAGAGCAA [C9A U10A], 0.914. In the case of AGUUGCUGACGGGAGCUCCAGCACAGUGAAAUGGACAGAAGGGCAGAGCAA [C9A U10C], the “exon inclusion enrichment index” value is 2.65.

In the case of AGUUACCACCGGGAGCUCCAGCACAGUGAAAUGGACAGAAGGGCAGUUCAA [G5A U7C G8A U10C A47U G48U], the “exon inclusion enrichment index” value stood at 1.85. As for AGUUACUACCGGGAGCUCCAGCACAGUGAAAUGGACAGAAGGGCAGAGCAA [G5A G8A U10C], the figure is 1.77. In the case of ACGUAUAUAUGGGAGCUCCAGCACAGUGAAAUGGACAGAAGGGCAGAGCAA [G2C U3G G5A C6U U7A G8U C9A] it was 0.0859; in that of AGUUGAAGAAGGGAGCUCCAGCACAGUGAAAUGGACAGACGGGCAGAGCAA [C6A U7A C9A U10A A40C], 1.8; in that of AGUUCGCGCCGGGAGCUCCAGCACAGUGAAAUGGACAGAAGGGCAGCACAA [G5C C6G U7C U10C A47C G48A], 1.78. In the case of AGUCCUUCUCGGGAGCUCCAGCACAGUGAAAUGGACAGAAGGGCAGAGCAA [U4C G5C C6U G8C C9U U10C] it was 2.17; in that of AGCCCGCGCCGGGAGCUCCAGCACAGUGAAAUGGACAGAAGGGCAGAGCAA [U3C U4C G5C C6G U7C U10C], 2.61; in that of AGUUAGGGAUGGGAGCUCCAGCACAGUUAAAUGGACAGAAGGGCAGAGCAA [G5A C6G U7G C9A G28U], 0.000687.

Turning to AGUUACCACCGGGAGCUCCAGCACAGUGAAAUGGCAAGAAGGGCAGAGCAA [G5A U7C G8A U10C A35C C36A], the “exon inclusion enrichment index” value is 1.46. With AGUUAGGGAUGGGAGCUCCAGCACUUUGAAAUGGACAGAAGGGCAGAGCAA [G5A C6G U7G C9A A25U G26U], the “exon inclusion enrichment index” value turned out to be 0.000854. AGUUGCUGCUUAGAGCUCCAGCACAGUGAAAUGGACAGAAGGGCAGAGCAA [G11U G12A]: the “exon inclusion enrichment index” value was 0.315. In the case of AGUUACCACCGGGAGCUCCAGCACAGUGAAAACGACAGAAGGGCAGAGCAA [G5A U7C G8A U10C U32A G33C] it was 2.91; in that of AGUUUACACAGGGAGCUCCAGCACAGUGAAAUGGACAGAAGGGCAGAGCAA [G5U C6A U7C G8A U10A], 0.0713; in that of AGUUCAUUUUGGGAGCUCCAGCACAGUGAAAUGGACAGAAGGGCAGAGCAA [G5C C6A G8U C9U], 0.42. As to AGUUGCUGCUGGGAGCUCCAGCACAGUGAAAUGGACAGAAGGGCAGACCAA [G48C], the “exon inclusion enrichment index” value came to 0.292. As for AGUUGCACCUGGGAGCUCCAGCACAGUGAAAUGGACAGAAGGGCAGAGCAA [U7A G8C], the figure is 1.67; as for AGUUUCUUUUGGGAGCUCCAGCACAGUGAAAUGGACAGAAGGGCAGGGCAA [G5U G8U C9U A47G], 0.0159; as for AGUUGAAGAAGGGAGCUCCAGCACAGUGAAAUGGACAUUAGGGCAGAGCAA [C6A U7A C9A U10A G38U A39U], 0.0139. As for ACAUACCACCGGGAGCUCCAGCACAGUGAAAUGGACAGAAGGGCAGAGCAA [G2C U3A G5A U7C G8A U10C], the “exon inclusion enrichment index” value stood at 1.93. In the case of AGUUGACGACGGGAGCUCCAGCACAGUGAAAUGGACAGGCGGGCAGAGCAA [C6A U7C C9A U10C A39G A40C] it was 3.81. As for AGUUCUUCUCGGGAGCUCCAGCACAGUGAAAUGGACAGAAGGCCAGAGCAA [G5C C6U G8C C9U U10C G43C], the figure is 1.75; as for AGUUACCACCGGGAUGUCCAGCACAGUGAAAUGGACAGAAGGGCAGAGCAA [G5A U7C G8A U10C G15U C16G], 1.74.

In the case of AGUUGAAGAAGGGAGCUCCAGCACAAUGAAAUGGACAGAAGGGCAGAGCAA [C6A U7A C9A U10A G26A], the “exon inclusion enrichment index” value was 1.08. In the case of AGUUAGGGAUGGGAGCUCCUUCACAGUGAAAUGGACAGAAGGGCAGAGCAA [G5A C6G U7G C9A A20U G21U], the “exon inclusion enrichment index” value stood at 0.000871. In the case of AGUUGACGACGGGAGCUCCAGCACAGUGAAAUGGAACGAAGGGCAGAGCAA [C6A U7C C9A U10C C36A A37C], the “exon inclusion enrichment index” value turned out to be 3.18. For the variant AGUUCGCGCCGGGAGCUCCAGCACAGUGAAAUGGACAGAAGGGCCGAGCAA [G5C C6G U7C U10C A45C], the “exon inclusion enrichment index” value was determined as 3.17. Consider AGUUGACGACGGGAGCUCCAGCACACGGAAAUGGACAGAAGGGCAGAGCAA [C6A U7C C9A U10C G26C U27G], for which the “exon inclusion enrichment index” value came to 3.92. Regarding AGUUGACGACGGGUCCUCCAGCACAGUGAAAUGGACAGAAGGGCAGAGCAA [C6A U7C C9A U10C A14U G15C], the “exon inclusion enrichment index” value was found to be 2.67. In the case of AGUUAUAUAUGGGAGCUCCAGCACAGUGAAAUGGACAGAAGGGCAAUGCAA [G5A C6U U7A G8U C9A G46A A47U], the “exon inclusion enrichment index” value came to 0.0808. For AGUUUCUUUUGGGAGCUCCAGCACAGUGAAAUGGACAGACGGGCAGAGCAA [G5U G8U C9U A40C], the “exon inclusion enrichment index” value amounted to 0.385. In the case of AGUUCGCGCGGGGAGCUCCAGCACAGUGAAAUGGACAGAAGGGCAGAGCAA [G5C C6G U7C U10G] it was 1.86. In the case of AGUUGAAGAAGGGAGCUCCAGCACAGUGAAAUGGACAGACUGGCAGAGCAA [C6A U7A C9A U10A A40C G41U] it was 0.431. Turning to AGUUACAUCCGGGAGCUCCAGCACAGUGAAAUGGACAGAAGGGCAGAGCAA [G5A U7A G8U U10C], the “exon inclusion enrichment index” value worked out at 1.96. AGUUCACACAGGGAGCUCCAGCACAGUGAACCGGACAGAAGGGCAGAGCAA [G5C C6A U7C G8A U10A A31C U32C]: the “exon inclusion enrichment index” value is 0.385. Consider AGUUUCUUUUGGGAGCUCCAGCACACUGAAAUGGACAGAAGGGCAGAGCAA [G5U G8U C9U G26C], for which the “exon inclusion enrichment index” value is 0.177.

On to AGUUCACACAGGGAGCUCCAGCACAGUGAAAUGGAUCGAAGGGCAGAGCAA [G5C C6A U7C G8A U10A C36U A37C], for which the “exon inclusion enrichment index” value is 0.0938. As for AGUUCGCAGCGGGAGCUCCAGCACAGUGAAAUGGACAGAAGGGCAGAGCAA [G5C C6G U7C G8A C9G U10C], the figure is 2.31.
